Series [1] deals with T1, Lys(Dnp)-ATNATVMPRIVGG-Lys(Abz).
T1 chain: KATNATVMPRIVGGK

The target of series [2] is T2, Lys(Dnp)-ATNATMFPRIVGG-Lys(Abz).
T2 chain: KATNATMFPRIVGGK

The target of series [3] is T3, Lys(Dnp)-ATNATVKPRIVGG-Lys(Abz).
T3 chain: KATNATVKPRIVGGK

Series [4] concerns the target T4, Lys(Dnp)-ATNATWQPRIVGG-Lys(Abz).
T4 chain: KATNATWQPRIVGGK

The target of series [5] is T5, Lys(Dnp)-ATNATIQPRIVGG-Lys(Abz).
T5 chain: KATNATIQPRIVGGK

Series [6] deals with T6, Lys(Dnp)-ATNATWHPRIVGG-Lys(Abz).
T6 chain: KATNATWHPRIVGGK

For series [7], the target named is T7, Lys(Dnp)-ATNATITPRIVGG-Lys(Abz).
T7 chain: KATNATITPRIVGGK

Series [8] addresses T8, Lys(Dnp)-ATNATFQPRIVGG-Lys(Abz).
T8 chain: KATNATFQPRIVGGK

The target of series [9] is T9, Lys(Dnp)-ATNATLSPRIVGG-Lys(Abz).
T9 chain: KATNATLSPRIVGGK

In series [10] the target is T10, Lys(Dnp)-ATNATYTPRIVGG-Lys(Abz).
T10 chain: KATNATYTPRIVGGK

Series [11] concerns the target T11, Lys(Dnp)-ATNATGLPRIVGG-Lys(Abz).
T11 chain: KATNATGLPRIVGGK

Series [12] concerns the target T12, Lys(Dnp)-ATNATPIPRIVGG-Lys(Abz).
T12 chain: KATNATPIPRIVGGK

Series [13] concerns the target T13, Lys(Dnp)-ATNATGDPRIVGG-Lys(Abz).
T13 chain: KATNATGDPRIVGGK

Series [14] concerns the target T14, Lys(Dnp)-ATNATKKPRIVGG-Lys(Abz).
T14 chain: KATNATKKPRIVGGK

For series [15], the target named is T15, Lys(Dnp)-ATNATQRPRIVGG-Lys(Abz).
T15 chain: KATNATQRPRIVGGK

The target in series [16] is T16, Lys(Dnp)-ATNATKQPRIVGG-Lys(Abz).
T16 chain: KATNATKQPRIVGGK

Series [17] has as its target T17, Lys(Dnp)-ATNATPAPRIVGG-Lys(Abz).
T17 chain: KATNATPAPRIVGGK

Series [18] deals with T18, Lys(Dnp)-ATNATMLPRIVGG-Lys(Abz).
T18 chain: KATNATMLPRIVGGK

Series [19] concerns the target T19, Lys(Dnp)-ATNATWEPRIVGG-Lys(Abz).
T19 chain: KATNATWEPRIVGGK

Series [20] deals with T20, Lys(Dnp)-ATNATYPPRIVGG-Lys(Abz).
T20 chain: KATNATYPPRIVGGK

Series [21] deals with T21, Lys(Dnp)-ATNATRNPRIVGG-Lys(Abz).
T21 chain: KATNATRNPRIVGGK

Series [22] deals with T22, Lys(Dnp)-ATNATWFPRIVGG-Lys(Abz).
T22 chain: KATNATWFPRIVGGK

Series [23] addresses T23, Lys(Dnp)-ATNATEGPRIVGG-Lys(Abz).
T23 chain: KATNATEGPRIVGGK

The target of series [24] is T24, Lys(Dnp)-ATNATYLPRIVGG-Lys(Abz).
T24 chain: KATNATYLPRIVGGK

Series [25] concerns the target T25, Lys(Dnp)-ATNATHLPRIVGG-Lys(Abz).
T25 chain: KATNATHLPRIVGGK

Series [26] deals with T26, Lys(Dnp)-ATNATTQPRIVGG-Lys(Abz).
T26 chain: KATNATTQPRIVGGK

The target in series [27] is T27, Lys(Dnp)-ATNATLDPRIVGG-Lys(Abz).
T27 chain: KATNATLDPRIVGGK

Series [28] concerns the target T28, Lys(Dnp)-ATNATELPRIVGG-Lys(Abz).
T28 chain: KATNATELPRIVGGK

The target in series [29] is T29, Lys(Dnp)-ATNATWNPRIVGG-Lys(Abz).
T29 chain: KATNATWNPRIVGGK

Series [30] addresses T30, Lys(Dnp)-ATNATMNPRIVGG-Lys(Abz).
T30 chain: KATNATMNPRIVGGK

Series [31] concerns the target T31, Lys(Dnp)-ATNATQGPRIVGG-Lys(Abz).
T31 chain: KATNATQGPRIVGGK

Series [32] deals with T32, Lys(Dnp)-ATNATTDPRIVGG-Lys(Abz).
T32 chain: KATNATTDPRIVGGK

The target in series [33] is T33, Lys(Dnp)-ATNATHNPRIVGG-Lys(Abz).
T33 chain: KATNATHNPRIVGGK

The target in series [34] is T34, Lys(Dnp)-ATNATTMPRIVGG-Lys(Abz).
T34 chain: KATNATTMPRIVGGK

The target of series [35] is T35, Lys(Dnp)-ATNATHVPRIVGG-Lys(Abz).
T35 chain: KATNATHVPRIVGGK

The target of series [36] is T36, Lys(Dnp)-ATNATMSPRIVGG-Lys(Abz).
T36 chain: KATNATMSPRIVGGK

The target in series [37] is T37, Lys(Dnp)-ATNATPDPRIVGG-Lys(Abz).
T37 chain: KATNATPDPRIVGGK

The target in series [38] is T38, Lys(Dnp)-ATNATIPPRIVGG-Lys(Abz).
T38 chain: KATNATIPPRIVGGK

The target in series [39] is T39, Lys(Dnp)-ATNATWLPRIVGG-Lys(Abz).
T39 chain: KATNATWLPRIVGGK

Series [40] has as its target T40, Lys(Dnp)-ATNATYHPRIVGG-Lys(Abz).
T40 chain: KATNATYHPRIVGGK

For series [41], the target named is T41, Lys(Dnp)-ATNATKGPRIVGG-Lys(Abz).
T41 chain: KATNATKGPRIVGGK

This note sets out measurements from patent US20160024487.

B1: Human plasma purified Factor Xa (protein)
chain 1: ANSFLEEMKKGHLERECMEETCSYEEAREVFEDSDKTNEFWNKYKDGDQCETSPCQNQGKCKDGLGEYTCTCLEGFEGKNCELFTRKLCSLDNGDCDQFCHEEQNSVVCSCARGYTLADNGKACIPTGPYPCGKQTLER
chain 2: IVGGQECKDGECPWQALLINEENEGFCGGTILSEFYILTAAHCLYQAKRFKVRVGDRNTEQEEGGEAVHEVEVVIKHNRFTKETYDFDIAVLRLKTPITFRMNVAPACLPERDWAESTLMTQKTGIVSGFGRTHEKGRQSTRLKMLEVPYVDRNSCKLSSSFIITQNMFCAGYDTKQEDACQGDSGGPHVTRFKDTYFVTGIVSWGEGCARKGKYGIYTKVTAFLKWIDRSMKTRGLPKAKSHAPEVITSSPLK
For B1, the FXa kcat/KM is 280 M⁻¹ s⁻¹ in series [1]; 55 M⁻¹ s⁻¹ in series [2]; 38 M⁻¹ s⁻¹ in series [3]; 37 M⁻¹ s⁻¹ in series [4]; 1700 M⁻¹ s⁻¹ in series [5]; 42 M⁻¹ s⁻¹ in series [6]. For the same protein, the FXa kcat/KM in series [7] worked out at 840 M⁻¹ s⁻¹; in series [8], 260 M⁻¹ s⁻¹; in [9], 690 M⁻¹ s⁻¹; in [10] it was 29 M⁻¹ s⁻¹.

B2: Human plasma purified Factor Xa (Molecular Innovations, Inc) (protein)
chain 1: ANSFLEEMKKGHLERECMEETCSYEEAREVFEDSDKTNEFWNKYKDGDQCETSPCQNQGKCKDGLGEYTCTCLEGFEGKNCELFTRKLCSLDNGDCDQFCHEEQNSVVCSCARGYTLADNGKACIPTGPYPCGKQTLER
chain 2: IVGGQECKDGECPWQALLINEENEGFCGGTILSEFYILTAAHCLYQAKRFKVRVGDRNTEQEEGGEAVHEVEVVIKHNRFTKETYDFDIAVLRLKTPITFRMNVAPACLPERDWAESTLMTQKTGIVSGFGRTHEKGRQSTRLKMLEVPYVDRNSCKLSSSFIITQNMFCAGYDTKQEDACQGDSGGPHVTRFKDTYFVTGIVSWGEGCARKGKYGIYTKVTAFLKWIDRSMKTRGLPKAKSHAPEVITSSPLK
For B2, the FXa kcat/KM was 78 M⁻¹ s⁻¹ in series [11]; 590 M⁻¹ s⁻¹ in series [12]; 73 M⁻¹ s⁻¹ in series [13]; 25 M⁻¹ s⁻¹ in [14]; 660 M⁻¹ s⁻¹ in series [15]; 100 M⁻¹ s⁻¹ in series [16]. Further, the FXa kcat/KM in [17] amounted to 170 M⁻¹ s⁻¹; in [18] it was 530 M⁻¹ s⁻¹; in series [19], 24 M⁻¹ s⁻¹; in [20] it was 20 M⁻¹ s⁻¹; in [21], 1700 M⁻¹ s⁻¹; in series [22], 49 M⁻¹ s⁻¹. The FXa kcat/KM in series [23] is 18 M⁻¹ s⁻¹; in [24] it was 340 M⁻¹ s⁻¹; in series [25], 140 M⁻¹ s⁻¹; in series [26], 17 M⁻¹ s⁻¹; in series [27] it was 1000 M⁻¹ s⁻¹; in [28], 100 M⁻¹ s⁻¹. Further, the FXa kcat/KM was determined as 22 M⁻¹ s⁻¹ in [29]; 430 M⁻¹ s⁻¹ in series [30]; 140 M⁻¹ s⁻¹ in [31]; 11 M⁻¹ s⁻¹ in series [32]; 71 M⁻¹ s⁻¹ in [33]; 13 M⁻¹ s⁻¹ in series [34]. Besides, the FXa kcat/KM in [35] was found to be 39 M⁻¹ s⁻¹; in [36], 570 M⁻¹ s⁻¹; in [37], 790 M⁻¹ s⁻¹; in [38] it was 8.5 M⁻¹ s⁻¹; in series [39], 460 M⁻¹ s⁻¹; in series [40], 43 M⁻¹ s⁻¹. This protein also returned an FXa kcat/KM in series [41] of 33 M⁻¹ s⁻¹.
